Assay results as given in publication PMC12866752 (2025).

B1: recombinant ectodomain of human IFN-λ receptor 1 (hIFN-λR1) (receptor)
chain: RPRLAPPQNVTLLSQNFSVYLTWLPGLGNPQDVTYFVAYQSSPTRRRWREVEECAGTKELLCSMMCLKKQDLYNKFKGRVRTVSPSSKSPWVESEYLDYLFEVEPAPPVLVLTQTEEILSANATYQLPPCMPPLDLKYEVAFWKEGAGNKTLFPVTPHGQPVQITLQPAASEHHCLSARTIYTFSVPKYSKFSKPTCFLLEVPEANWA

How the values were obtained:
Test in all cases: SPR
[1] = molecular target: B1
[2] = molecular target: B1
[3] = molecular target: designed human interferon-λ3 variant hIFN-λ3-DE1, His-tagged (human, UniProt Q8IZI9)

| Binder | Kd [1] | koff [2] | Kd [3] | koff [3] |
| --- | --- | --- | --- | --- |
| wild-type human interferon-λ3 (hIFN-λ3-WT), His-tagged (ligand) VPVARLRGALPDARGCHIAQFKSLSPQELQAFKRAKDALEESLLLKDCKCRSRLFPRTWDLRQLQVRERPVALEAELALTLKVLEATADTDPALGDVLDQPLHTLHHILSQLRACIQPQPTAGPRTRGRLHHWLHRLQEAPKKESPGCLEASVTFNLFRLLTRDLNCVASGDLCV | 7.67 nM | 0.0183 s⁻¹ |  |  |
| B1 |  |  | 6.61 nM | 0.0244 s⁻¹ |
